# B1: Twister Ribozyme (parent)
# chain: AACACUGCCAAUGCCGGUCCCAAGCCCGGAUAAAAGUGGAGGGGGCGG
# Variants of: B1
# Assay: self-cleavage, relative activity (ratio to wild type); higher = more cleavage; co-transcriptional
row,Variant,self-cleavage
1,C8G G47U,0.142
2,G7C C14U,0.0373
3,A30C G39A,0.189
4,A33U G36A,0.282
5,A32G G38U,0.846
6,C25U C27A,0.509
7,C27U U37G,0.342
8,G28C G42U,0.169
9,G24C G48C,0.116
10,G39C G47C,0.167
11,U18A A30C,0.104
12,G7U A30C,0.0485
13,C27A A33C,0.245
14,C5G U18G,0.0734
15,G17U U37G,0.12
16,G17A U37C,0.142
17,C9A C25G,0.0787
18,C27U A40G,0.119
19,C27U A40U,0.164
20,C5A G45A,0.532
21,C5G U31A,0.634
22,G45U G47U,0.386
23,C20U G24U,0.0768
24,U37A A40U,0.137

row,Variant,self-cleavage
1,A4C C5U,0.701
2,C3A G44A,0.221
3,A33U A35U,0.926
4,A2C A30U,0.0662
5,C14A G29A,0.974
6,C19G C25A,0.0881
7,U12C G44A,0.852
8,G13U U37A,0.133
9,G17U C46G,0.301
10,U6A G17C,0.0763
11,C3A G17A,0.0964
12,U12A A35C,1.09
13,C20U A23C,0.0767
14,U18G C19A,0.0794
15,A4C G29C,0.0879
16,A10C G41U,0.653
17,A10C G41A,0.494
18,U12A G36U,0.794
19,A4U G7C,0.0628
20,C3U A34G,0.153
21,A35C U37G,0.703
22,G48C,1.15
23,A2U A40U,0.154
24,A30U A34C,0.17

row,Variant,self-cleavage
1,G28U G36U,0.136
2,U12G G28A,0.799
3,A33C G42A,0.177
4,U18G A34G,0.079
5,C8U U37A,0.307
6,G24C U37A,0.107
7,C21G A23G,0.11
8,G13A U37G,0.233
9,A2G A33C,0.503
10,C27U C46U,0.822
11,G47U,0.965
12,C25U G48U,0.813
13,C9U,0.754
14,A11G C27A,0.449
15,G38A G39A,0.4
16,G45A G48U,0.917
17,G17U G28U,0.122
18,U18C A30U,0.512
19,C5G C15G,0.0337
20,A10G C46G,0.971
21,C5U A23U,0.306
22,C3G A30G,0.239
23,A10U G17C,0.11
24,G39C G48C,0.161

row,Variant,self-cleavage
1,C14G G29U,0.192
2,A32U C46A,0.873
3,A22C A33U,0.983
4,G16C A32C,0.536
5,U12A G39U,0.242
6,G28U A34G,0.574
7,C8G C21G,0.0605
8,C8G A23G,0.0516
9,C19G C46U,0.359
10,C9A G38C,0.589
11,C14U A40G,0.21
12,C9G G13A,1.07
13,G24C A34U,0.0578
14,U12G A30G,0.783
15,G28C A34U,0.567
16,G29C G36A,0.188
17,U6G A35U,0.549
18,U6G A35C,0.678
19,C5G G16C,0.0784
20,A4G U37G,0.73
21,C15A A22C,0.533
22,G13U A34U,0.199
23,A30C G43A,0.187
24,G17U A34C,0.0829

row,Variant,self-cleavage
1,U31G G45A,0.99
2,U12A G41A,0.696
3,C15U G17A,0.204
4,A35G G36C,0.491
5,G24U G36C,0.0879
6,C27A U31G,0.629
7,A2C G29U,0.0781
8,C21G A40U,0.129
9,U18C A40G,0.121
10,C5A G28U,0.282
11,G24U A33G,0.104
12,C3A G36U,0.0633
13,C3A G36A,0.0998
14,U6A G41U,0.204
15,U37A G43C,0.149
16,A22C G28A,0.862
17,C5A U37G,0.671
18,C14A G48A,0.868
19,A10U A40C,0.305
20,A1G G38C,0.304
21,G24U C26G,0.0895
22,C26G G48U,0.146
23,C9U G45U,0.328
24,C26A G48C,0.434

row,Variant,self-cleavage
1,U31C G45U,0.871
2,C19U G48C,1.04
3,C9G G47C,0.186
4,C9G G16A,0.329
5,A4G G13U,0.327
6,C5U A10C,1.06
7,A30C A40C,0.103
8,C15U G36U,0.203
9,C15A G16A,0.351
10,G17A G44A,0.671
11,G16C G36U,0.113
12,G7A C15G,0.0625
13,U37C G43A,0.142
14,G13A C15A,0.46
15,A23G G45C,0.181
16,U6C G43A,0.0844
17,A4G C26G,0.169
18,G36A G43A,0.14
19,C5U G28U,0.67
20,C26U G47U,0.15
21,C21A U31G,0.119
22,C25G A35U,0.299
23,C25A C46A,0.07
24,G7C U12C,0.0838

row,Variant,self-cleavage
1,C27G A35G,0.108
2,A22U G28U,0.736
3,C19G A35U,0.34
4,A1C C20U,0.187
5,G38C G39C,0.127
6,G16U A40G,0.206
7,C14A G16U,0.394
8,A23G G48C,0.516
9,A1C A32G,0.18
10,C15U G45A,0.924
11,C20G A40U,0.0992
12,C15G U31C,0.108
13,C5A U6C,0.112
14,U12A C20U,1.15
15,C14G A35U,0.125
16,A34G G41U,0.131
17,G17U C25U,0.204
18,G24A A33G,0.097
19,C15U G29A,0.927
20,C15A G24A,0.0695
21,A23U G29U,0.315
22,G41C G42A,0.125
23,U12G G36A,0.64
24,G43U G45A,0.614

row,Variant,self-cleavage
1,G29U A34G,0.684
2,A10G C15G,0.136
3,C15U C19U,0.902
4,C20G U37C,0.0961
5,A33C G44C,0.852
6,C8G G17C,0.07
7,A4C C26A,0.0425
8,A32G A35U,0.986
9,U18G G36U,0.083
10,C15G A30G,0.123
11,C15G A30C,0.0706
12,U12A G17U,0.41
13,U12A G43A,0.298
14,C5U U18C,0.24
15,A22G G44C,0.225
16,U37G G43C,0.0693
17,C3A A40G,0.0819
18,A22U C27U,0.692
19,A35C C46G,0.828
20,C19G G43C,0.711
21,A4C G36A,0.103
22,C19U,1.05
23,G7A A11C,0.0895
24,G7C A35U,0.0701

row,Variant,self-cleavage
1,C8G U37C,0.131
2,C3A G13C,0.0651
3,C8A G47U,0.156
4,C8G U18C,0.0751
5,C21G C25G,0.0701
6,G13C A32G,0.255
7,C9U C21U,0.0907
8,C9A G16A,0.372
9,A23U G39U,0.119
10,A1U A32G,0.0499
11,A1U A32C,0.057
12,A10C G28C,0.822
13,A10U C15U,0.911
14,A2U G45C,0.191
15,C3G G13U,0.0808
16,C9A A30U,0.725
17,C8A G13A,0.359
18,A34C G43C,0.103
19,A4U G44C,0.105
20,A33G U37G,0.601
21,C5A A34G,0.41
22,C3G G42U,0.118
23,U37G G48A,0.844
24,U6G G36U,0.0341

row,Variant,self-cleavage
1,G38U G45U,0.707
2,U12A A34U,0.984
3,A1C G29C,0.231
4,U6A A40U,0.116
5,C20A G44C,0.146
6,A34U A35C,0.892
7,A11G C46G,0.938
8,C5U,0.887
9,A22U G47C,0.216
10,A2U A34U,0.189
11,A33G G41A,0.453
12,C15G C46U,0.075
13,G29A C46G,0.838
14,A10U A23C,0.182
15,C8G A33C,0.203
16,A1C G38C,0.22
17,C46U,0.958
18,A1G G48C,0.524
19,G7C A30C,0.0728
20,G17C C19U,0.105
21,C26G G29C,0.134
22,C26G G29U,0.0569
23,A11G C26A,0.187
24,G29C G38A,0.796

row,Variant,self-cleavage
1,U18C C25U,0.16
2,C5U A34U,0.631
3,G13U C14G,0.512
4,A34G G42C,0.185
5,G7U C46A,0.0526
6,G24C G42U,0.0759
7,A11U C20U,1.08
8,C15U A33G,0.802
9,A23U U31A,0.502
10,A32C G43U,0.344
11,C9A C19G,0.0837
12,C19U C20G,0.0718
13,C27G G48A,0.102
14,A22G A23G,0.0844
15,C9G G17U,0.0981
16,G7A A33C,0.211
17,G7A A33G,0.243
18,C9U G39U,0.115
19,C15A G38C,0.452
20,A1G A4G,0.237
21,C15A C26G,0.108
22,G17C G43C,0.0789
23,C5G G43C,0.122
24,C3U A33C,0.476

row,Variant,self-cleavage
1,U37G G45U,0.47
2,A22G C46U,0.286
3,A2U G48U,0.581
4,G16C C20G,0.104
5,G28U A40G,0.155
6,A11G G36C,0.0984
7,A30U G38U,0.957
8,G44U G45A,0.825
9,C20A G36U,0.0906
10,C20A G36C,0.0494
11,U12C G39A,0.609
12,A30G A40C,0.215
13,A11C A40C,0.14
14,U6A G48U,0.782
15,C19U A40C,0.152
16,A35G G38A,0.199
17,A1G G13U,0.129
18,C3A G16C,0.0608
19,G42A G47C,0.241
20,A22C G44A,0.914
21,A32U U37A,0.74
22,A1U G16A,0.0911
23,C25U G42A,0.148
24,A33C G48A,0.867

row,Variant,self-cleavage
1,A2G G28U,0.286
2,G7A A22G,0.0675
3,U12G G43A,0.399
4,U6C C26A,0.0404
5,U12G A35G,0.815
6,G16C G39C,0.119
7,A23U A34G,0.0731
8,G41C C46G,0.286
9,A11G G16C,0.406
10,C5A C19A,0.0624
11,A33G G38A,0.709
12,G42A G44C,0.178
13,A33G G43U,0.238
14,C19G G36U,0.099
15,G13U A35U,0.696
16,G7U G16U,0.0559
17,A22G,0.368
18,C3A G24U,0.0787
19,A30G G42C,0.571
20,G39U A40U,0.158
21,A10G U18A,0.841
22,A34G A35G,0.526
23,G13U C26G,0.0668
24,C20A G47A,0.0961

row,Variant,self-cleavage
1,A32C A33C,0.767
2,C26G G39A,0.0939
3,A40U G41C,0.17
4,C8G C26A,0.0716
5,A40G G43C,0.135
6,C26U C46G,0.307
7,G13C C26U,0.0884
8,G43A G48C,0.354
9,U18G A40U,0.0452
10,A35U G42U,0.374
11,A32G G39U,0.158
12,C25U G28C,0.412
13,C20G G39A,0.106
14,G24A G42A,0.0855
15,A4C G38A,0.142
16,A34U G47C,0.247
17,A34U G47U,0.502
18,G7A G38A,0.0994
19,G7A G38C,0.348
20,G29U G47C,0.364
21,G13A C20G,0.115
22,C26A G42U,0.109
